Data taken from US20250355001A1, “METHOD FOR DETECTING A TAU PROTEIN FRAGMENT IN A SAMPLE” (GTINVENT LIMITED, priority 2022, published 2025).
Changes are numbered by the printed parent chain.

B1: CA12: anti-tau clone, Tables 2 and 10; SEQ ID NO: 372 (protein)
chain: QVQLQGSGPSLVKPSQTLSLTCTVSGFSFDSYYVGWVRQAPGKALEWLGNIYSTGRAFYNPALKSRLSITRDTSKSQVSLSVSSVTIEDTALYYCVRGSYYHGGGNGMVDFFDYWSPGLLVTVSSEGKSSGASGESKVDDQVVRTQPSSVSGSLGQRVSITCSGSSSNVGYGNYVGWFQQVPGSAPKLLIYAATSRASGVPDRFSGSRSGNTATLTIDSLQAEDEADYYCSSYQRGNTGVFGSGTRLTVLG
modifications: CA12 amino acid sequence
B2: S1G10: anti-tau clone, Table 2; SEQ ID NO: 415 (protein)
scFv: QVQLQESGPSLVKPSQTLSLTCTVSGFSLTSNSVGWVRQAPGKAPEWVAGIDTDGEEGYNPALNSRLSITRDTSKSQVSLSLSSVTSEDTAVYYCGRSYRADGLAYGYVQAIDYWGPGLLVTVSSEGKSSGASGESKVDDQAVLTQPSSMSGSLGQRVSITCSGSFIGISSVGWFQQLPGSGLRTIIVASDGRPSGVPDRFSMSKSGNTATLTISSLQAEDEADYFCGSSDRTQYTGVFGSGTRLTVLG
modifications: S1G10 amino acid sequence
B3: C-A9 (protein)
scFv: B2 scFv with A101S, S148A, M150V
modifications: left off: small tags and cut ends
B4: S-1D12 (protein)
CDR 1: NNAVG
CDR 2: GCSSDGTCYYNSALKS
CDR 3: GHYSIYGYDYLGTIDY
CDR 4: SGSSSNVGGGNSVG
CDR 5: DTNSRPS
CDR 6: VTGDSTTHDDL
modifications: VHCDR1 S1D12, S2C1; VHCDR2 S1D12, S2C1; VHCDR3 S1D12; VLCDR1 S1D12, ME12; VLCDR2 S1D12; VLCDR3 S1D12
B5: C-E3 (protein)
CDR 1: SNAVG
CDR 2: GCSSDGKCYYNSALKS
CDR 3: GYYPVYGYDYLGTIDY
CDR 4: SGSSSNVGRNDVA
CDR 5: GTTSRPS
CDR 6: ASGDSSAINDI
modifications: VHCDR1 ME12, NS3D9; VHCDR1 S1D2, S1H6, S2C3; VHCDR1 MC5, MD12; VHCDR1 3aA6, VHCDR1 CE3; VHCDR2 NS3D9, CE3; VHCDR3 NS3D9, CE3; VLCDR1 NS3D9, CE3; VLCDR2 NS3D9, CE3; VLCDR3 NS3D9, CE3
B6: CB2: anti-tau clone, Tables 2 and 10; SEQ ID NO: 369 (protein)
scFv: QVQLQESGPSLVKPSQTLSLTCTVSGFSLSTNSVGWVRQAPGKAPEWVAGIDTDGEEGFNPVLKSRLSITRDTSKSQVSLSLSNVTSEDTAVYYCGRSYRTDGLAYGYVQAIDYWGPGLLVTISSEGKSSGASGESKVDDQSVLTQPSSVSGSPGQTVSITCSGSYIGSSGVGWFQQLPGSGLRTIIVASDGRPSGVPDRFSMSKSGNTATLTISSLQAEDEADYFCGSSDRTQYTGLFGSGTRLTVLG
modifications: CB2 amino acid sequence

Test system: hT40, dGA, dGAE and truncated tau fragments
Experiment: Binding ELISA / epitope mapping of anti-tau scAbs with truncated tau proteins and 13mer peptides
Parameters: species or system human
Settings: for Tau proteins/fragments with positive scAb reactivity: binding ELISA; for Shortest region bound on hT40: incl. 13mer peptides; for Binding regions on hT40: Table 33, core binding scAbs tested in epitope occlusion assays
Method: A series of binding ELISA was performed using various truncated versions of the tau protein and 13mer peptide libraries spanning the entire hT40 molecule for mapping the epitopes of anti-tau scAbs (Full list of protein antigens used is given in Table 14). In general, ELISA plates were coated with 1 μg/ml hT40 or dGA or dGAE or other truncated versions of the protein and in the case of biotinylated peptides, plates were coated with 5 μg/ml Streptavidin followed by 1 μg/ml biotinylated peptide. The plates were blocked with 2% MPBS and scAb samples added at desired starting concentrations and double diluted across the plate. Binding was detected using anti-Human C Kappa HRP conjugated secondary antibody and the resulting immunoreaction was developed and absorbance values measured as described above.
Selected E specific scAbs and their specific binding to dGAE is shown below (FIG. 8A-E).
Similarly, dGA binding ‘NS’, ‘S’ and ‘M’ group scAbs were subjected to further antigen binding ELISA using shorter tau proteins and biotinylated 13mer peptides as shown below (FIG. 10A-F) and (FIG. 11A-R).

| Molecule | Tau proteins/fragments with positive scAb reactivity (Table 17, 'C' group scAbs) | Shortest region bound on hT40 (Table 17, 'C' group scAbs) | Binding regions on hT40 | further results |
| --- | --- | --- | --- | --- |
| B1 | hT40, 297-390 (dGA) | 367-379 |  |  |
| B2 |  |  |  | Tau proteins/fragments with positive scAb reactivity (Table 16, NS, S and M clones): hT40, 297-390 (dGA), 297-391 (dGAE), 369-390, 369-391; Shortest region bound on hT40 (Table 16, NS, S and M clones): 367-379; Detection scAb (Epitope) (Table 28 (LoD table), residues of hT40): S1G10 (367-379) |
| B3 |  |  | 367-379 |  |
| B4 |  |  | 337-355 |  |
| B5 |  |  | 297-356 |  |
| B6 | hT40, 348-441 | 359-391 |  |  |
